The results in this text go back to publication PMC6162344.

Assay [1] concerns the target Taxol-stabilised microtubules (TIRF) (pig) (UniProt P02550). The assay can be described thus: TIRF microscopy of single particles on microtubules.
In the next assay the target is CENP-OPQU (human) (UniProt Q9BU64). As to the kind of experiment: AUC.
Chain of CENP-OPQU (human) (Q9BU64 whole entry, chain 1 of 4): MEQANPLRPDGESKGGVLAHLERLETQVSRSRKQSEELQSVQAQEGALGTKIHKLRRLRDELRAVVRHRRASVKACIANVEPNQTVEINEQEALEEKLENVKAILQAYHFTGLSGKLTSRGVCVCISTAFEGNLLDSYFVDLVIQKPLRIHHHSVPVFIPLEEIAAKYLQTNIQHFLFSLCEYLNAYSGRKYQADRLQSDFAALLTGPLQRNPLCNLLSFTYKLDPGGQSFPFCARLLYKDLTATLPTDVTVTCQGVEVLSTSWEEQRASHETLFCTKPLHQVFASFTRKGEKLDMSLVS
Chain of CENP-OPQU (human) (Q6IPU0 whole entry, chain 2 of 4, further chain): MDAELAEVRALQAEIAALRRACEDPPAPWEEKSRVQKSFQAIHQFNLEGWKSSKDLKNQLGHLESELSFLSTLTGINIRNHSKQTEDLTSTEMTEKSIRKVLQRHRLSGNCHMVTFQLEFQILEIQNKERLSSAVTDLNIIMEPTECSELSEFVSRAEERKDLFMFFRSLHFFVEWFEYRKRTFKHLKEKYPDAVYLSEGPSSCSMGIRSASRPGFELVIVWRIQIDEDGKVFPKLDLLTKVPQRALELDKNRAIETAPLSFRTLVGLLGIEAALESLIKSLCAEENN
Chain of CENP-OPQU (human) (Q7L2Z9 whole entry, chain 3 of 4, further chain): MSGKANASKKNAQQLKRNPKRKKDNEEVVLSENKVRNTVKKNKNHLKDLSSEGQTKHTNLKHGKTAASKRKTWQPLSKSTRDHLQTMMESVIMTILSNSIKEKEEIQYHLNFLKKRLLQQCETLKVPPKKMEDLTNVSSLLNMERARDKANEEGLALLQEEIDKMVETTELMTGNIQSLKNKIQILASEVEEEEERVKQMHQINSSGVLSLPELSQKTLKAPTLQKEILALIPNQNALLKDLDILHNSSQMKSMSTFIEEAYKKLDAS
Chain of CENP-OPQU (human) (Q71F23 whole entry, chain 4 of 4, further chain): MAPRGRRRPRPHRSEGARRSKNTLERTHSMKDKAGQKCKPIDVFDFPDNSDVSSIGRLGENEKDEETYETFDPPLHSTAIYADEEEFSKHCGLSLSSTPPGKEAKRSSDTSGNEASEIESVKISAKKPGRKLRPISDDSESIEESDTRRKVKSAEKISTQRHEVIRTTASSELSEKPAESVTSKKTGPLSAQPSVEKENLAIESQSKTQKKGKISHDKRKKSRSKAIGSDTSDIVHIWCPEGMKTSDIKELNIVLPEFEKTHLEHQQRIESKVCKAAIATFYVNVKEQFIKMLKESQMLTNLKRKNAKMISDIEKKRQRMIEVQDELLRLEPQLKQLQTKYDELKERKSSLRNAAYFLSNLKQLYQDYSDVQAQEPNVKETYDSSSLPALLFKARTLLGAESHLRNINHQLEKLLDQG

Chain of CENP-OPQU (Q9BU64 whole entry): as the sequence (Q9BU64 whole entry, chain 1 of 4) above
Chain of CENP-OPQU (Q6IPU0 whole entry): as the sequence (Q6IPU0 whole entry, chain 2 of 4, further chain) above
Chain of CENP-OPQU (Q7L2Z9 whole entry): as the sequence (Q7L2Z9 whole entry, chain 3 of 4, further chain) above
Chain of CENP-OPQU (Q71F23 whole entry): as the sequence (Q71F23 whole entry, chain 4 of 4, further chain) above

On to “CENP-OPQU (from UniProt Q9BU64 1-300; Q6IPU0 1-288; Q7L2Z9 1-268; Q71F23 1-418) (complex)”, for which the mean time associated in assay [1] was 131 s.

Turning to “CENP-R (co-expressed or co-lysed with CENP-OPQU subunits) (from UniProt Q13352 1-177) (natural protein)”, the stoichiometry N with CENP-OPQU (human) was determined as 1.
